Assay results taken from ChEMBL document CHEMBL1137666, “Biochemical Characterization of SFC-1, a class A carbapenem-hydrolyzing beta-lactamase” (Antimicrob Agents Chemother, 2007).

Assays:
[1] = substrate: CC1(C)S[C@@H]2[C@H](NC(=O)[C@H](N)c3ccccc3)C(=O)N2[C@H]1C(=O)O; test: (§1) Activity of Serratia fonticola UTAD54 SFC1 beta lactamase expressed in Escherichia coli BL21(DE3) by SDS-PAGE
[2] = substrate: CO[C@@]1(NC(=O)Cc2cccs2)C(=O)N2C(C(=O)O)=C(COC(N)=O)CS[C@@H]21; test: as §1
[3] = substrate: C[C@@H](O)[C@H]1C(=O)N2C(C(=O)O)=C(S[C@@H]3CN[C@H](C(=O)N(C)C)C3)[C@H](C)[C@H]12; test: as §1
[4] = substrate: CO/N=C(\C(=O)N[C@@H]1C(=O)N2C(C(=O)O)=C(COC(C)=O)CS[C@H]12)c1csc(N)n1; test: as §1
[5] = substrate: CC(=O)OCC1=C(C(=O)O)N2C(=O)[C@@H](NC(=O)Cc3cccs3)[C@H]2SC1; test: as §1
[6] = substrate: C[C@H]1[C@H](NC(=O)/C(=N\OC(C)(C)C(=O)O)c2csc(N)n2)C(=O)N1S(=O)(=O)O; test: as §1
[7] = substrate: CCN1CCN(C(=O)N[C@@H](C(=O)N[C@@H]2C(=O)N3[C@@H]2SC(C)(C)[C@@H]3C(=O)O)c2ccccc2)C(=O)C1=O; test: as §1
[8] = substrate: CC(C)(O/N=C(\C(=O)N[C@@H]1C(=O)N2C(C(=O)[O-])=C(C[n+]3ccccc3)CS[C@H]12)c1csc(N)n1)C(=O)O; test: as §1
[9] = substrate: C[C@@H](O)[C@H]1C(=O)N2C(C(=O)O)=C(SCCNC=N)C[C@H]12; test: as §1
[10] = substrate: CC1(C)S[C@@H]2[C@H](NC(=O)[C@H](N)c3ccccc3)C(=O)N2[C@H]1C(=O)O; test: (§2) Ratio of Kcat to Km for Serratia fonticola UTAD54 SFC1 beta lactamase expressed in Escherichia coli BL21(DE3) by SDS-PAGE
[11] = substrate: CO[C@@]1(NC(=O)Cc2cccs2)C(=O)N2C(C(=O)O)=C(COC(N)=O)CS[C@@H]21; test: as §2
[12] = substrate: C[C@@H](O)[C@H]1C(=O)N2C(C(=O)O)=C(S[C@@H]3CN[C@H](C(=O)N(C)C)C3)[C@H](C)[C@H]12; test: as §2
[13] = substrate: CO/N=C(\C(=O)N[C@@H]1C(=O)N2C(C(=O)O)=C(COC(C)=O)CS[C@H]12)c1csc(N)n1; test: as §2
[14] = substrate: CC(=O)OCC1=C(C(=O)O)N2C(=O)[C@@H](NC(=O)Cc3cccs3)[C@H]2SC1; test: as §2
[15] = substrate: C[C@H]1[C@H](NC(=O)/C(=N\OC(C)(C)C(=O)O)c2csc(N)n2)C(=O)N1S(=O)(=O)O; test: as §2
[16] = substrate: CCN1CCN(C(=O)N[C@@H](C(=O)N[C@@H]2C(=O)N3[C@@H]2SC(C)(C)[C@@H]3C(=O)O)c2ccccc2)C(=O)C1=O; test: as §2
[17] = substrate: CC(C)(O/N=C(\C(=O)N[C@@H]1C(=O)N2C(C(=O)[O-])=C(C[n+]3ccccc3)CS[C@H]12)c1csc(N)n1)C(=O)O; test: as §2
[18] = substrate: C[C@@H](O)[C@H]1C(=O)N2C(C(=O)O)=C(SCCNC=N)C[C@H]12; test: as §2
[19] = substrate: CC1(C)S[C@@H]2[C@H](NC(=O)[C@H](N)c3ccccc3)C(=O)N2[C@H]1C(=O)O; test: (§3) Activity of Klebsiella pneumoniae KPC-1 beta lactamase expressed in Escherichia coli DH5alpha by SDS-PAGE
[20] = substrate: CO[C@@]1(NC(=O)Cc2cccs2)C(=O)N2C(C(=O)O)=C(COC(N)=O)CS[C@@H]21; test: as §3
[21] = substrate: C[C@@H](O)[C@H]1C(=O)N2C(C(=O)O)=C(S[C@@H]3CN[C@H](C(=O)N(C)C)C3)[C@H](C)[C@H]12; test: as §3
[22] = substrate: CO/N=C(\C(=O)N[C@@H]1C(=O)N2C(C(=O)O)=C(COC(C)=O)CS[C@H]12)c1csc(N)n1; test: as §3
[23] = substrate: CC(=O)OCC1=C(C(=O)O)N2C(=O)[C@@H](NC(=O)Cc3cccs3)[C@H]2SC1; test: as §3
[24] = substrate: C[C@H]1[C@H](NC(=O)/C(=N\OC(C)(C)C(=O)O)c2csc(N)n2)C(=O)N1S(=O)(=O)O; test: as §3
[25] = substrate: CCN1CCN(C(=O)N[C@@H](C(=O)N[C@@H]2C(=O)N3[C@@H]2SC(C)(C)[C@@H]3C(=O)O)c2ccccc2)C(=O)C1=O; test: as §3
[26] = substrate: CC(C)(O/N=C(\C(=O)N[C@@H]1C(=O)N2C(C(=O)[O-])=C(C[n+]3ccccc3)CS[C@H]12)c1csc(N)n1)C(=O)O; test: as §3
[27] = substrate: C[C@@H](O)[C@H]1C(=O)N2C(C(=O)O)=C(SCCNC=N)C[C@H]12; test: as §3
[28] = substrate: CC1(C)S[C@@H]2[C@H](NC(=O)[C@H](N)c3ccccc3)C(=O)N2[C@H]1C(=O)O; test: (§4) Ratio of Kcat to Km for Klebsiella pneumoniae KPC-1 beta lactamase expressed in Escherichia coli DH5alpha by SDS-PAGE
[29] = substrate: CO[C@@]1(NC(=O)Cc2cccs2)C(=O)N2C(C(=O)O)=C(COC(N)=O)CS[C@@H]21; test: as §4
[30] = substrate: C[C@@H](O)[C@H]1C(=O)N2C(C(=O)O)=C(S[C@@H]3CN[C@H](C(=O)N(C)C)C3)[C@H](C)[C@H]12; test: as §4
[31] = substrate: CO/N=C(\C(=O)N[C@@H]1C(=O)N2C(C(=O)O)=C(COC(C)=O)CS[C@H]12)c1csc(N)n1; test: as §4
[32] = substrate: CC(=O)OCC1=C(C(=O)O)N2C(=O)[C@@H](NC(=O)Cc3cccs3)[C@H]2SC1; test: as §4
[33] = substrate: C[C@H]1[C@H](NC(=O)/C(=N\OC(C)(C)C(=O)O)c2csc(N)n2)C(=O)N1S(=O)(=O)O; test: as §4
[34] = substrate: CCN1CCN(C(=O)N[C@@H](C(=O)N[C@@H]2C(=O)N3[C@@H]2SC(C)(C)[C@@H]3C(=O)O)c2ccccc2)C(=O)C1=O; test: as §4
[35] = substrate: CC(C)(O/N=C(\C(=O)N[C@@H]1C(=O)N2C(C(=O)[O-])=C(C[n+]3ccccc3)CS[C@H]12)c1csc(N)n1)C(=O)O; test: as §4
[36] = substrate: C[C@@H](O)[C@H]1C(=O)N2C(C(=O)O)=C(SCCNC=N)C[C@H]12; test: as §4

B1: Carbapenem-hydrolizing beta-lactamase SFC-1 (Serratia fonticola), Q6JP75 (protein)
chain: MSRTGRLSVFFSAIFPLLTLTNMAEAASQPPQVTVDKLKRLENDFGGRIGVYAIDTGSNKTFGYRANERFPLCSSFKGFLAAAVLSKSQQQEGLLNQRIRYDNRVMEPHSPVTEKQITTGMTVAELSAATLQYSDNGAANLLLEKLIGGPEGMTSFMRSIGDNVFRLDRWELELNSAIPGDDRDTSTPKAVAESMQKLAFGNVLGLTERHQLMDWFKGNTTGGARIRASVPANWVVGDKTGTCGVYGTANDYAVIWPVGHAPIVLAVYTSKPDKNSKHSDAVIADASRIVLESFNIDALRMATGKSIGF
Q: With B1 as the protein, how does the Km [1] read?
A: Its Km is 176 µM.

Q: What about the kcat [1] of the same protein?
A: The kcat was 155 s⁻¹.

Q: And the Km [2]?
A: The Km was 77 µM.

Q: And the kcat [2]?
A: Its kcat is 4.2 s⁻¹.

Q: What about the Km [3] of the same protein?
A: Its Km is 26 µM.

Q: What about the kcat [3] of the same protein?
A: Its kcat is 6.5 s⁻¹.

Q: And the Km [4]?
A: Its Km is 89 µM.

Q: What about the kcat [4] of the same protein?
A: Its kcat is 8.3 s⁻¹.

Q: What about the Km [5] of the same protein?
A: Its Km is 129 µM.

Q: What about the kcat [5] of the same protein?
A: Its kcat is 280 s⁻¹.

Q: And the Km [6]?
A: The Km was 484 µM.

Q: And the kcat [6]?
A: The kcat was 162 s⁻¹.

Q: And the Km [7]?
A: The Km was 38 µM.

Q: What about the kcat [7] of the same protein?
A: Its kcat is 44.7 s⁻¹.

Q: What about the Km [8] of the same protein?
A: The Km was 52 µM.

Q: And the kcat [8]?
A: The kcat was 2.1 s⁻¹.

Q: And the Km [9]?
A: Its Km is 82 µM.

Q: And the kcat [9]?
A: Its kcat is 54 s⁻¹.

Q: What about the kcat/Km [10] of the same protein?
A: Its kcat/Km is 881000 M⁻¹ s⁻¹.

Q: And the kcat/Km [11]?
A: The kcat/Km was 54500 M⁻¹ s⁻¹.

Q: And the kcat/Km [12]?
A: Its kcat/Km is 250000 M⁻¹ s⁻¹.

Q: And the kcat/Km [13]?
A: Its kcat/Km is 93300 M⁻¹ s⁻¹.

Q: What about the kcat/Km [14] of the same protein?
A: The kcat/Km was 2.17e+06 M⁻¹ s⁻¹.

Q: What about the kcat/Km [15] of the same protein?
A: The kcat/Km was 335000 M⁻¹ s⁻¹.

Q: What about the kcat/Km [16] of the same protein?
A: The kcat/Km was 1.19e+06 M⁻¹ s⁻¹.

Q: What about the kcat/Km [17] of the same protein?
A: Its kcat/Km is 40400 M⁻¹ s⁻¹.

Q: And the kcat/Km [18]?
A: Its kcat/Km is 659000 M⁻¹ s⁻¹.

B2: Carbapenem-hydrolyzing beta-lactamase KPC (Klebsiella pneumoniae), Q9F663 (protein)
chain: MSLYRRLVLLSCLSWPLAGFSATALTNLVAEPFAKLEQDFGGSIGVYAMDTGSGATVSYRAEERFPLCSSFKGFLAAAVLARSQQQAGLLDTPIRYGKNALVPWSPISEKYLTTGMTVAELSAAAVQYSDNAAANLLLKELGGPAGLTAFMRSIGDTTFRLDRWELELNSAIPGDARDTSSPRAVTESLQKLTLGSALAAPQRQQFVDWLKGNTTGNHRIRAAVPADWAVGDKTGTCGVYGTANDYAVVWPTGRAPIVLAVYTRAPNKDDKHSEAVIAAAARLALEGLGVNGQ
Q: Which results are given for B2?
A: Km [19]: 130 µM; kcat [19]: 110 s⁻¹; Km [20]: 120 µM; kcat [20]: 0.26 s⁻¹; Km [21]: 12 µM; kcat [21]: 3 s⁻¹; Km [22]: 160 µM; kcat [22]: 14 s⁻¹; Km [23]: 53 µM; kcat [23]: 75 s⁻¹; Km [24]: 310 µM; kcat [24]: 20 s⁻¹; Km [25]: 18 µM; kcat [25]: 24 s⁻¹; Km [26]: 94 µM; kcat [26]: 0.1 s⁻¹; Km [27]: 81 µM; kcat [27]: 12 s⁻¹; kcat/Km [28]: 850000 M⁻¹ s⁻¹; kcat/Km [29]: 2000 M⁻¹ s⁻¹; kcat/Km [30]: 250000 M⁻¹ s⁻¹; kcat/Km [31]: 90000 M⁻¹ s⁻¹; kcat/Km [32]: 1.4e+06 M⁻¹ s⁻¹; kcat/Km [33]: 70000 M⁻¹ s⁻¹; kcat/Km [34]: 1.33e+06 M⁻¹ s⁻¹; kcat/Km [35]: 1000 M⁻¹ s⁻¹; kcat/Km [36]: 150000 M⁻¹ s⁻¹
